{"source": "patent US20210388087A1", "about": "(Chugai, published 2021)"}
{"molecular_target": "T1, Human CD3eg linker (human)", "T1 construct": "Single chain: epsilon and gamma subunits of human CD3 joined by a 29-mer linker, Flag-tag at the C-terminus; also called recombinant human CD3", "T1 chain": "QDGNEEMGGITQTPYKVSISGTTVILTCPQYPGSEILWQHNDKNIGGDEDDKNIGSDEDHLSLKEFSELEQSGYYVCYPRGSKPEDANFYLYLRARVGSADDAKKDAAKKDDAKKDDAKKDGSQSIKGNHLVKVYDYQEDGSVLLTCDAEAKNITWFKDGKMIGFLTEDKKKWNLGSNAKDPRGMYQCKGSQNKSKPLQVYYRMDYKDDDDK", "test": "Biacore SPR, vs template H183/L072", "units": {"fold change of affinity": "fold"}}
{"binder": "H183/L072 VH Y55I (antibody, name in Kabat numbering, V domains shown) VH: QVQLVESGGGLVQPGRSLRLSCAASGFTFSNAWMHWVRQAPGKGLEWVAQIKDKGNAIAAYYAPSVKGRFTISRDDSKNSIYLQMNSLKTEDTAVYYCHYVHYASASTVLPAFGVDAWGQGTTVTVSS VL: DIVMTQSPLSLPVTPGEPASISCQASQELVHMNRNTYLHWYQQKPGQAPRLLIYKVSNRFPGVPDRFSGSGSGTDFTLKISRVEAEDVGVYYCAQGTSVPFTFGQGTKLEIK", "fold change of affinity": 0}
{"binder": "H183/L072 VH Y55T (antibody, name in Kabat numbering, V domains shown) VH: QVQLVESGGGLVQPGRSLRLSCAASGFTFSNAWMHWVRQAPGKGLEWVAQIKDKGNATAAYYAPSVKGRFTISRDDSKNSIYLQMNSLKTEDTAVYYCHYVHYASASTVLPAFGVDAWGQGTTVTVSS VL: DIVMTQSPLSLPVTPGEPASISCQASQELVHMNRNTYLHWYQQKPGQAPRLLIYKVSNRFPGVPDRFSGSGSGTDFTLKISRVEAEDVGVYYCAQGTSVPFTFGQGTKLEIK", "fold change of affinity": 0}
{"binder": "H183/L072 VH Y55K (antibody, name in Kabat numbering, V domains shown) VH: QVQLVESGGGLVQPGRSLRLSCAASGFTFSNAWMHWVRQAPGKGLEWVAQIKDKGNAKAAYYAPSVKGRFTISRDDSKNSIYLQMNSLKTEDTAVYYCHYVHYASASTVLPAFGVDAWGQGTTVTVSS VL: DIVMTQSPLSLPVTPGEPASISCQASQELVHMNRNTYLHWYQQKPGQAPRLLIYKVSNRFPGVPDRFSGSGSGTDFTLKISRVEAEDVGVYYCAQGTSVPFTFGQGTKLEIK", "fold change of affinity": 0.4}
{"binder": "H183/L072 VH Y55N (antibody, name in Kabat numbering, V domains shown) VH: QVQLVESGGGLVQPGRSLRLSCAASGFTFSNAWMHWVRQAPGKGLEWVAQIKDKGNANAAYYAPSVKGRFTISRDDSKNSIYLQMNSLKTEDTAVYYCHYVHYASASTVLPAFGVDAWGQGTTVTVSS VL: DIVMTQSPLSLPVTPGEPASISCQASQELVHMNRNTYLHWYQQKPGQAPRLLIYKVSNRFPGVPDRFSGSGSGTDFTLKISRVEAEDVGVYYCAQGTSVPFTFGQGTKLEIK", "fold change of affinity": 0.7}
{"binder": "H183/L072 VH Y55W (antibody, name in Kabat numbering, V domains shown) VH: QVQLVESGGGLVQPGRSLRLSCAASGFTFSNAWMHWVRQAPGKGLEWVAQIKDKGNAWAAYYAPSVKGRFTISRDDSKNSIYLQMNSLKTEDTAVYYCHYVHYASASTVLPAFGVDAWGQGTTVTVSS VL: DIVMTQSPLSLPVTPGEPASISCQASQELVHMNRNTYLHWYQQKPGQAPRLLIYKVSNRFPGVPDRFSGSGSGTDFTLKISRVEAEDVGVYYCAQGTSVPFTFGQGTKLEIK", "fold change of affinity": 0.5}
{"binder": "H183/L072 VH Y58A (antibody, name in Kabat numbering, V domains shown) VH: QVQLVESGGGLVQPGRSLRLSCAASGFTFSNAWMHWVRQAPGKGLEWVAQIKDKGNAYAAAYAPSVKGRFTISRDDSKNSIYLQMNSLKTEDTAVYYCHYVHYASASTVLPAFGVDAWGQGTTVTVSS VL: DIVMTQSPLSLPVTPGEPASISCQASQELVHMNRNTYLHWYQQKPGQAPRLLIYKVSNRFPGVPDRFSGSGSGTDFTLKISRVEAEDVGVYYCAQGTSVPFTFGQGTKLEIK", "fold change of affinity": 0.6}
{"binder": "H183/L072 VH Y55Q (antibody, name in Kabat numbering, V domains shown) VH: QVQLVESGGGLVQPGRSLRLSCAASGFTFSNAWMHWVRQAPGKGLEWVAQIKDKGNAQAAYYAPSVKGRFTISRDDSKNSIYLQMNSLKTEDTAVYYCHYVHYASASTVLPAFGVDAWGQGTTVTVSS VL: DIVMTQSPLSLPVTPGEPASISCQASQELVHMNRNTYLHWYQQKPGQAPRLLIYKVSNRFPGVPDRFSGSGSGTDFTLKISRVEAEDVGVYYCAQGTSVPFTFGQGTKLEIK", "fold change of affinity": 0.5}
{"binder": "H183/L072 VH Y55P (antibody, name in Kabat numbering, V domains shown) VH: QVQLVESGGGLVQPGRSLRLSCAASGFTFSNAWMHWVRQAPGKGLEWVAQIKDKGNAPAAYYAPSVKGRFTISRDDSKNSIYLQMNSLKTEDTAVYYCHYVHYASASTVLPAFGVDAWGQGTTVTVSS VL: DIVMTQSPLSLPVTPGEPASISCQASQELVHMNRNTYLHWYQQKPGQAPRLLIYKVSNRFPGVPDRFSGSGSGTDFTLKISRVEAEDVGVYYCAQGTSVPFTFGQGTKLEIK", "fold change of affinity": 0}
{"binder": "H183/L072 VH Y58G (antibody, name in Kabat numbering, V domains shown) VH: QVQLVESGGGLVQPGRSLRLSCAASGFTFSNAWMHWVRQAPGKGLEWVAQIKDKGNAYAAGYAPSVKGRFTISRDDSKNSIYLQMNSLKTEDTAVYYCHYVHYASASTVLPAFGVDAWGQGTTVTVSS VL: DIVMTQSPLSLPVTPGEPASISCQASQELVHMNRNTYLHWYQQKPGQAPRLLIYKVSNRFPGVPDRFSGSGSGTDFTLKISRVEAEDVGVYYCAQGTSVPFTFGQGTKLEIK", "fold change of affinity": 0.3}
{"binder": "H183/L072 VH Y55R (antibody, name in Kabat numbering, V domains shown) VH: QVQLVESGGGLVQPGRSLRLSCAASGFTFSNAWMHWVRQAPGKGLEWVAQIKDKGNARAAYYAPSVKGRFTISRDDSKNSIYLQMNSLKTEDTAVYYCHYVHYASASTVLPAFGVDAWGQGTTVTVSS VL: DIVMTQSPLSLPVTPGEPASISCQASQELVHMNRNTYLHWYQQKPGQAPRLLIYKVSNRFPGVPDRFSGSGSGTDFTLKISRVEAEDVGVYYCAQGTSVPFTFGQGTKLEIK", "fold change of affinity": 0.4}
{"binder": "H183/L072 VH Y58F (antibody, name in Kabat numbering, V domains shown) VH: QVQLVESGGGLVQPGRSLRLSCAASGFTFSNAWMHWVRQAPGKGLEWVAQIKDKGNAYAAFYAPSVKGRFTISRDDSKNSIYLQMNSLKTEDTAVYYCHYVHYASASTVLPAFGVDAWGQGTTVTVSS VL: DIVMTQSPLSLPVTPGEPASISCQASQELVHMNRNTYLHWYQQKPGQAPRLLIYKVSNRFPGVPDRFSGSGSGTDFTLKISRVEAEDVGVYYCAQGTSVPFTFGQGTKLEIK", "fold change of affinity": 1.4}
{"binder": "H183/L072 VH Y58I (antibody, name in Kabat numbering, V domains shown) VH: QVQLVESGGGLVQPGRSLRLSCAASGFTFSNAWMHWVRQAPGKGLEWVAQIKDKGNAYAAIYAPSVKGRFTISRDDSKNSIYLQMNSLKTEDTAVYYCHYVHYASASTVLPAFGVDAWGQGTTVTVSS VL: DIVMTQSPLSLPVTPGEPASISCQASQELVHMNRNTYLHWYQQKPGQAPRLLIYKVSNRFPGVPDRFSGSGSGTDFTLKISRVEAEDVGVYYCAQGTSVPFTFGQGTKLEIK", "fold change of affinity": 0.3}
{"binder": "H183/L072 VH Y55V (antibody, name in Kabat numbering, V domains shown) VH: QVQLVESGGGLVQPGRSLRLSCAASGFTFSNAWMHWVRQAPGKGLEWVAQIKDKGNAVAAYYAPSVKGRFTISRDDSKNSIYLQMNSLKTEDTAVYYCHYVHYASASTVLPAFGVDAWGQGTTVTVSS VL: DIVMTQSPLSLPVTPGEPASISCQASQELVHMNRNTYLHWYQQKPGQAPRLLIYKVSNRFPGVPDRFSGSGSGTDFTLKISRVEAEDVGVYYCAQGTSVPFTFGQGTKLEIK", "fold change of affinity": 0.3}
{"binder": "H183/L072 VH Y58H (antibody, name in Kabat numbering, V domains shown) VH: QVQLVESGGGLVQPGRSLRLSCAASGFTFSNAWMHWVRQAPGKGLEWVAQIKDKGNAYAAHYAPSVKGRFTISRDDSKNSIYLQMNSLKTEDTAVYYCHYVHYASASTVLPAFGVDAWGQGTTVTVSS VL: DIVMTQSPLSLPVTPGEPASISCQASQELVHMNRNTYLHWYQQKPGQAPRLLIYKVSNRFPGVPDRFSGSGSGTDFTLKISRVEAEDVGVYYCAQGTSVPFTFGQGTKLEIK", "fold change of affinity": 0.6}
{"binder": "H183/L072 VH Y55S (antibody, name in Kabat numbering, V domains shown) VH: QVQLVESGGGLVQPGRSLRLSCAASGFTFSNAWMHWVRQAPGKGLEWVAQIKDKGNASAAYYAPSVKGRFTISRDDSKNSIYLQMNSLKTEDTAVYYCHYVHYASASTVLPAFGVDAWGQGTTVTVSS VL: DIVMTQSPLSLPVTPGEPASISCQASQELVHMNRNTYLHWYQQKPGQAPRLLIYKVSNRFPGVPDRFSGSGSGTDFTLKISRVEAEDVGVYYCAQGTSVPFTFGQGTKLEIK", "fold change of affinity": 0}
{"binder": "H183/L072 VH Y58D (antibody, name in Kabat numbering, V domains shown) VH: QVQLVESGGGLVQPGRSLRLSCAASGFTFSNAWMHWVRQAPGKGLEWVAQIKDKGNAYAADYAPSVKGRFTISRDDSKNSIYLQMNSLKTEDTAVYYCHYVHYASASTVLPAFGVDAWGQGTTVTVSS VL: DIVMTQSPLSLPVTPGEPASISCQASQELVHMNRNTYLHWYQQKPGQAPRLLIYKVSNRFPGVPDRFSGSGSGTDFTLKISRVEAEDVGVYYCAQGTSVPFTFGQGTKLEIK", "fold change of affinity": 0}
{"binder": "H183/L072 VH Y58E (antibody, name in Kabat numbering, V domains shown) VH: QVQLVESGGGLVQPGRSLRLSCAASGFTFSNAWMHWVRQAPGKGLEWVAQIKDKGNAYAAEYAPSVKGRFTISRDDSKNSIYLQMNSLKTEDTAVYYCHYVHYASASTVLPAFGVDAWGQGTTVTVSS VL: DIVMTQSPLSLPVTPGEPASISCQASQELVHMNRNTYLHWYQQKPGQAPRLLIYKVSNRFPGVPDRFSGSGSGTDFTLKISRVEAEDVGVYYCAQGTSVPFTFGQGTKLEIK", "fold change of affinity": 0.2}
{"binder": "H183/L072 VH Y55L (antibody, name in Kabat numbering, V domains shown) VH: QVQLVESGGGLVQPGRSLRLSCAASGFTFSNAWMHWVRQAPGKGLEWVAQIKDKGNALAAYYAPSVKGRFTISRDDSKNSIYLQMNSLKTEDTAVYYCHYVHYASASTVLPAFGVDAWGQGTTVTVSS VL: DIVMTQSPLSLPVTPGEPASISCQASQELVHMNRNTYLHWYQQKPGQAPRLLIYKVSNRFPGVPDRFSGSGSGTDFTLKISRVEAEDVGVYYCAQGTSVPFTFGQGTKLEIK", "fold change of affinity": 0.5}
{"binder": "H183/L072 VH Y55M (antibody, name in Kabat numbering, V domains shown) VH: QVQLVESGGGLVQPGRSLRLSCAASGFTFSNAWMHWVRQAPGKGLEWVAQIKDKGNAMAAYYAPSVKGRFTISRDDSKNSIYLQMNSLKTEDTAVYYCHYVHYASASTVLPAFGVDAWGQGTTVTVSS VL: DIVMTQSPLSLPVTPGEPASISCQASQELVHMNRNTYLHWYQQKPGQAPRLLIYKVSNRFPGVPDRFSGSGSGTDFTLKISRVEAEDVGVYYCAQGTSVPFTFGQGTKLEIK", "fold change of affinity": 0.6}
